We go through seven molecules from paper PMC4357705, “Human Rap1 modulates TRF2 attraction to telomeric DNA”.

Data set [1] concerns the target Rap1 without His-tag, labelled with Alexa Fluor 488 (human) (UniProt Q9NYB0). The experiment in a line: fluorescence polarisation; fluorescence anisotropy; TRF2noHis titrated into 100 nM Rap1noHis labelled with Alexa Fluor 488; 50 mM NaCl, 50 mM sodium phosphate pH 7.0, 25 C; concentration as TRF2 dimer.
For data set [2], the target named is Rap1, full-length, N-terminal His6-tag, labelled with Alexa Fluor 594 (human) (UniProt Q9NYB0). The experiment in a line: fluorescence polarisation; fluorescence anisotropy; TRF2 titrated into 100 nM Rap1 labelled with Alexa Fluor 594; 50 mM NaCl, 50 mM sodium phosphate pH 7.0 with 1 mM DTT; concentration as TRF2 dimer.
The target is the same in data set [3]. The experiment in a line: fluorescence polarisation; fluorescence anisotropy; TRF2 titrated into 100 nM Rap1 labelled with Alexa Fluor 594; PBST (Phosphate Buffered Saline with Tween 20, ~140 mM NaCl); concentration as TRF2 dimer.
Data set [4] deals with Telomeric Repeat binding Factor 2 (TRF2), full-length, N-terminal His6-tag (human). The experiment in a line: SPR; TRF2 immobilised by amine coupling on ProteOn GLC chip; Rap1 as analyte (methods: 80-5 nM; key of Figure S4A: 160-10 nM); PBST; 240 s injection at 100 ul/min, 1200 s dissociation; equilibrium responses fitted with a simple bimolecular equilibrium model.
The target of data set [5] is T1, Rap1 (human, UniProt Q9NYB0 1-399).
T1 sequence: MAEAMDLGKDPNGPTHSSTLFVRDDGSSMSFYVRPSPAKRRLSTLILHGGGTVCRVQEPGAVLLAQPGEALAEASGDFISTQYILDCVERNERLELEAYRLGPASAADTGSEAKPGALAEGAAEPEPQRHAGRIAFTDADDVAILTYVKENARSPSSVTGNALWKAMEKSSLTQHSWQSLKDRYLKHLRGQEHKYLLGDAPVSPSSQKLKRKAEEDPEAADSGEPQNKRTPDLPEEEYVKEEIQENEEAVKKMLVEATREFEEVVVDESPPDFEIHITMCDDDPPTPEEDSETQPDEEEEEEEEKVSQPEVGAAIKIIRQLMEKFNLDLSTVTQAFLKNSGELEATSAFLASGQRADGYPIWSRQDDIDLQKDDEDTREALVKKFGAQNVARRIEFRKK
The data set is described as follows: fluorescence anisotropy; FA: 50 mM NaCl, 50 mM sodium phosphate pH 7.0, 25 °C, 7.5 nM DNA; EMSA: same buffer, 15 min on ice, 5% (or 4%) PAGE in 0.25x TBE at 4 °C; SPR: PBST. The settings on record: protein: recombinant; tags: N-terminal His6; label: Alexa Fluor 488 (FA); 5' biotin on S6 in SPR; 3' overhang 6 nt.

In data set [6] the target is T1, Rap1. The experiment in a line: EMSA; up to Rap1:DNA 40:1; FA: 50 mM NaCl, 50 mM sodium phosphate pH 7.0, 25 °C, 7.5 nM DNA; EMSA: same buffer, 15 min on ice, 5% (or 4%) PAGE in 0.25x TBE at 4 °C; SPR: PBST. The note with it: protein: recombinant; tags: N-terminal His6; label: Alexa Fluor 488 at 3' end of one strand; blunt.
The target of data set [7] is T1, Rap1. The data set is described as follows: SPR; PBST; FA: 50 mM NaCl, 50 mM sodium phosphate pH 7.0, 25 °C, 7.5 nM DNA; EMSA: same buffer, 15 min on ice, 5% (or 4%) PAGE in 0.25x TBE at 4 °C; SPR: PBST. The note with it: protein: recombinant; tags: N-terminal His6; label: 5' biotin on S6; blunt.

On to TRF2 without His-tag (natural protein), for which the dissociation constant Kd in data set [1] amounted to 49 nM.
In the case of “Telomeric Repeat binding Factor 2 (TRF2), full-length, N-terminal His6-tag (natural protein)”, the Kd came out at 44 nM in data set [2] and 64 nM in data set [3].

B1: Repressor activator protein 1 (Rap1), full-length, N-terminal His6-tag (natural protein)
chain: MAEAMDLGKDPNGPTHSSTLFVRDDGSSMSFYVRPSPAKRRLSTLILHGGGTVCRVQEPGAVLLAQPGEALAEASGDFISTQYILDCVERNERLELEAYRLGPASAADTGSEAKPGALAEGAAEPEPQRHAGRIAFTDADDVAILTYVKENARSPSSVTGNALWKAMEKSSLTQHSWQSLKDRYLKHLRGQEHKYLLGDAPVSPSSQKLKRKAEEDPEAADSGEPQNKRTPDLPEEEYVKEEIQENEEAVKKMLVEATREFEEVVVDESPPDFEIHITMCDDDPPTPEEDSETQPDEEEEEEEEKVSQPEVGAAIKIIRQLMEKFNLDLSTVTQAFLKNSGELEATSAFLASGQRADGYPIWSRQDDIDLQKDDEDTREALVKKFGAQNVARRIEFRKK
Consider B1, for which the Kd in data set [4] stood at 44 nM.

B2: Overhang_SR2 (mixed)
DNA 1: CTAACTTAGGGTTAGGGTTAGGGTTAG
DNA 2: CTAACCCTAACCCTAAGTTAG
For B2, the binding result in the data set with Rap1 [5] is listed as “no binding”.

B3: R5 (dsDNA)
DNA 1: GTTAGGGTTAGGGTTAGGGTTAGGGTTAGGGTTAG
DNA 2: CTAACCCTAACCCTAACCCTAACCCTAACCCTAAC
modifications: 3'-C6 aminoalkyl linker on one strand
With B3, in the data set with Rap1 [6], the binding result is on record as “no binding”.

B4: SR2 (dsDNA)
DNA 1: CTAACTTAGGGTTAGGGTTAG
DNA 2: CTAACCCTAACCCTAAGTTAG
Regarding B4, the binding result in the data set with Rap1 [7] is “no binding”.

B5: R2 (dsDNA)
DNA 1: GTTAGGGTTAGGGTTAG
DNA 2: CTAACCCTAACCCTAAC
modifications: 3'-C6 aminoalkyl linker on one strand
Consider B5, for which the binding result with Rap1 [6] was “no binding”.
